In patent publication US20250188136A1, “AV3 MUTANT POLYPEPTIDES FOR PEST CONTROL” (Vestaron Corporation, priority 2021, published 2025):
Several values for one entry are separate records, joined by “and”; a condition that tells them apart may be missing. Identical values can stand only once. Entries after “also recorded” stand apart in the source; their conditions may differ. Ends that are not written are not given here.

What was measured:
[1] = Proteolytic resistance of Av3b mutants during production-strain fermentation (rpHPLC); format: physicochemical; conditions: for Degradation?: mutant strain fermentation at pH 6.5, 140 hours, rpHPLC; for degradation product during fermentation (HPLC): production strain fermentation at pH 6.5, rpHPLC
Experimental: The mutants in the table below were evaluated for stability in fermentation beer. Fermentation conditions and HPLC analysis were performed as described above. The mutant production strains were generated using YCT306 K. lactis strain. The production of mutants was performed as described in Example 2; fermentation conditions were performed using the same fermentation process described above regarding the Av3b production strain, with pH control at pH 6.5. […] To identify the mutant with proteolytic resistance, the mutant strains were grown under the same fermentation conditions as Av3b, and samples were taken throughout the fermentation process. The samples taken at 140 hour of fermentation process were analyzed in rpHPLC.

[2] = Circular dichroism assay, melting temperature; format: physicochemical; conditions: 10 mM Na3PO4 solution, pH 5.9; 20° C. to 98° C.
Experimental: A JASCO J-1500 CD spectrometer (JASCO, 28600 Mary's Court, Easton, MD 21601 USA) was used to measure the CD spectrum and the secondary structure information of the Av3bM24, Av3bM165, Av3bM103, and Av3bM170 peptides (with Av3b as a comparator). The peptides were prepared in 10 mM Na3PO4 solution, pH 5.9, and loaded into the cuvette for CD spectrum measurement. Measurements were processed with a light wavelength scan ranging from 180 nm to 250 nm, with a 1 nm interval; the temperature graduate changed from 20° C. to 98° C., with 2° C. interval.

[3] = Stability of Av3b mutants in insect gut extract; format: in vitro ADME, Helicoverpa zea; conditions: H. zea gut extract, room temperature
Experimental: To test the stability of the Av3b mutants in the gut enzymes of a lepidopteran pest, the gut extract were prepared from Helicoverpa zea (Corn Earworm or “CEW”). Corn Earworm insects were obtained commercially from Benzon Research (Carlisle, PA) as eggs. Hatched larvae were raised on artificial diet until ⅘^th instar (20 mm long) before guts were isolated. Before gut extraction, larvae were anesthetized using CO2. The larva was then pinned on the dissection plate at both the head and the tail. Using dissection scissors, the cuticle was nicked. The dissection scissors were then inserted into the nick and the […] along the insect. The cuticle was then carefully pulled back and pinned open to reveal the digestive track. Using DI water, the insect was thoroughly rinsed to remove hemolymph.
After the insect guts were extracted from the larva, they were spun at 15000 rpm for 5 minutes. The resulting supernatant is the “insect gut extract” that was used to determine peptide stability. Av3b mutant peptide was mixed with the gut extract to […] of 2 μg/μL, and incubated at room temperature. At time points between 0-100 hours, 6 μL of a given sample was mixed with 93 μL dH2O followed by the addition of 1 μL of a 2% trifluoracetic acid solution to stop the reaction. The sample was then analyzed by rpHPLC to determine the peptide loss during the gut extract treatment.

Spodoptera frugiperda = assay: Lepidoptera injection assay, fall armyworm (FAW); format: in vivo; conditions: third instar larva, 2 μL injection, scored at 24-hours post-injection
Experimental: (§1) An injection assay was performed on Helicoverpa zea (corn earworm or “CEW”) and Spodoptera frugiperda (fall armyworm or “FAW”). Injections comprised a given Av3b mutant peptide combined with water to arrive at the planned dose. The Av3b mutants included Av3bM24; Av3bM165; Av3bM103; and Av3bM170. Av3b was used as a control.
(§2) Insects were reared on an artificial diet prepared from General Purpose Lepidoptera diet (Frontier Scientific, Newark, DE 19713, product No. F9772) according to the manufacturer's instructions. To perform the insect injection bioassay, 5 mL of hot diet was dispensed into the well of a rearing tray (Bio-Service Inc., Bio-RT-32), with 8 wells per injection treatment. The hot diet was then allowed to cool and solidify. Next, third instar larva were incubated on ice in order to immobilize them. Injections were prepared on a hand-microapplicator with injection solution (>100 μL) in 1-cc all-glass syringe having a 30 gauge straight needle. Air bubbles were removed from the syringe, and the syringe was set it up on the microapplicator. Injection volume was adjusted in the microapplicator at 2 μL.
(§3) To inject the larva, the insects were picked up and positioned close to the injection needle. The needle was allowed to penetrate the cuticle of the third pro-leg of the larva. The injection knob of the microapplicator was then rotated to inject a 2 μL solution into hemolymph from the third pro-leg. After injection the larva maintained on the needle for a few seconds to make sure the injected solution was absorbed. Then, the larva were gently removed from the needle and placed into the wells of prepared tray, along with 5 mL of solidified diet per well. Finally, the tray was sealed with vent covers.
(§4) Injected larva were incubated at 28° C. in an insect incubator, and scored at 24-hours post-injection based on their condition. Insect conditions were categorized as follows: alive (walking, eating, normal behavior); affected (showing toxic symptoms, such as tremors, writhing, unbalanced gait, or a combination thereof), knockdown (paralyzed albeit able to move with gentle poke); and dead (unmoving, discoloration, or a combination thereof).

[4] = Thermo-stability at 54° C. in pH 4.0 solution; format: physicochemical; conditions: for peptide change on day 14: pH 4.0, 54° C., HPLC peak area, + mass increase, − mass loss; for thermo-stability at 54° C.: pH 4.0 solution, up to 14 days
Experimental: A thermo-stability study was performed for Av3b, Av3bM24, Av3bM165, Av3bM103, and Av3bM170 in a pH 4.0 solution at 54° C. for 0, 3, 7, 10, 12, and 14 days, with a caffeine internal control to cancel variation from evaporation. Samples of 1 mL were prepared in 1.5 mL microtube with sodium acetate buffer (NaOAc) at pH 4.0, containing 0.1 μg/μL of peptide, and 0.025 μg/μL of caffeine. The samples were incubated at 54° C. in a dry mixer. At 0, 3, 7, 10, 12, and 14 days, 20 μL of each sample was analyzed via analytic rpHPLC system to evaluate peptide loss. Each sample contained a fixed amount caffeine, which was used to compensate the peptide HPLC UV absorbance peak change due to volume change by evaporation. FIG. 68.

Helicoverpa zea = assay: Lepidoptera injection assay, corn earworm (CEW); format: in vivo; conditions: for knock-down effects compared to Av3b: CEW and FAW injection, KD50; for KD50 CEW: third instar larva, 2 μL injection, scored at 24-hours post-injection
Experimental: as §1, §2, §3, §4

[5] = DASbox small-scale fermentation, degradation by HPLC and LC/MS; format: physicochemical; conditions: DASbox fed batch fermentation runs
Experimental: DASbox® is a parallel bioreactor system (Eppendorf, 175 Freshwater Blvd, Enfield, CT 06082, USA). The DASbox system used here contains 8 fermentation vessels with 250 mL volume capacity, allowing 8 small scale fermentation runs simultaneously. The DASbox fermentation runs were performed according to the manufacturer's instructions, and using the fermentation conditions described herein.
The screening of the Av3b mutants was conducted using a fed batch process in aerobic bioreactor. Reactors were initially filled to ˜45% capacity with a rich culture media containing 5-20 g/L of a carbon source such as glucose, sorbitol, or lactose, 5-20 g/L phosphoric acid, 0.1-1.5 g/L Calcium sulfate, 5-15 g/L Potassium sulfate, 0.5-10 g/L Magnesium sulfate heptahydrate, 1-5 g/L potassium hydroxide, and 10-60 g/L of corn steep liquor. The temperature of the reactor was maintained between 25-35° C. for the duration of the fermentation. The pH was held constant between 4-5.5 with the addition of 15% ammonium hydroxide. Dissolved oxygen was held constant by sparging air between 0.5-1.5 volume/volume/min and by increasing agitation to maintain a set point of 10-30%.
Inoculation of the reactor was from an overnight seed culture containing 5-40 g/L of a carbon source such as glucose, sorbitol, or lactose, and 5-40 g/L of corn steep liquor. Inoculation percentage ranged from 5-20% of initial fill volume. Once inoculated, the reactor was fed with a 70% solution of the selected carbon source until the reactor was filled and/or desired supernatant peptide concentration was achieved, approximately 96-140 hours and 0.8-1.2 g/L, respectively.

[6] = Stability of purified peptide spiked into Av3b fermentation beer (rpHPLC); format: physicochemical
Experimental: To determine the stability of the new mutants, Av3bM19, Av3bM23, Av3bM24, Av3bM25, Av3bM27, and Av3bM28 were purified and incubated in Av3b fermentation beer. The mutants were purified by cation-exchange chromatography using a GE SP-Sephadex C-25 column. The column was first calibrated with 30 mM sodium citrate buffer at pH 3.0. Then, the culture supernatant containing the secreted mutant peptide was loaded into the column to let the mutant peptide bind to the resin. The column was then washed with 30 mM sodium citrate buffer, pH 3.0, followed by washing with 30 mM sodium acetate, pH 4.0. Next, the bound mutant peptide was eluted by 1 M or 2 M NaCl with 30 mM sodium acetate, pH 4.0. The elution was then concentrated and buffer-exchanged to 30 mM sodium acetate, pH 4.0 using a 1 kD cutoff spin concentrator.
After purification, each of the mutants, Av3bM19, Av3bM23, Av3bM24, Av3bM25, Av3bM27, and Av3bM28, were evaluated for stability by spiking them into Av3b strain fermentation beer at pH 6.5. As a negative control, Av3b was evaluated in a pH 4.0 buffer. As a positive control, purified Av3b was evaluated by spiking into the same Av3b fermentation beer at pH 6.5. All stability experiments were performed at room temperature. […] The amount of peptide remaining relative to the beginning was determined by normalizing the peak area at different time to the one at 0 hour for each treatment. The degradation trend is visualized by the bar graph of the relative remaining peptide amount trend.

Row | Sequence | Degradation? [1] | degradation product during fermentation (HPLC) [1] | CD Melting temperature [2] [°C] | half conversion time to Av3b peptide [3] [min] | KD50 FAW (Spodoptera frugiperda) | peptide change on day 14 [4] | thermo-stability at 54° C. [4] | knock-down effects compared to Av3b (Helicoverpa zea) | KD50 CEW (Helicoverpa zea) | degradation detected via HPLC and LC/MS [5] | half-degradation time ([6]; Av3b production fermentation beer pH 6.5, room temperature (Example 11, FIG. 37)) | half-degradation time ([6]; Av3b production fermentation beer pH 6.5, room temperature (Example 12, FIG. 39)) | peptide remaining ([6]; fermentation beer pH 6.5, room temperature, 248 hours, HPLC peak area relative to starting amount) [%] | stability of peptide in pH 4 buffer (negative control) ([6]; pH 4 buffer, room temperature) | time stable in solution at 54° C. ([4]; pH 4 NaOAc buffer, 54° C.) [days]
1 | KSCCPCYWGGCPWGQNCYPEGCSGPKVG [Av3bM165] | No | did not show any degradation product; also recorded: without apparent degradation products | 80 | 5.3 | 578 pmol/g | +4.2% | thermo-stable | comparable knock-down effects to Av3b | 389 pmol/g | degradation was not detected |  |  |  |  | 
2 | KSCCPCYWGGCPWGQNCYPEGCSGPK [Av3b, reference compound] |  | showed degradation during fermentation | 69.3 |  | 883 ± 25 (N = 2) pmol/g | +8.3% | thermo-stable |  | 367 ± 166 (N = 6) pmol/g | degradation was detected | 46 h and 46.34 h | 56 h and 56.087 h | 3.8 | no loss of the peptide; also recorded: stable in pH 4 buffer | 
3 | KSCCPCYWGGCPWGQNCYPEGCGGPG [Av3bM170] | No | did not show any degradation product | 70 |  | 495±148 pmol/g and 495 ± 148 (N = 2) pmol/g | +4.6% | thermo-stable |  | 104 pmol/g | degradation was not detected |  |  |  |  | 
4 | KSCCPCYWGGCPWGQNCYPEGCSGPG (ends and bridges not checked; cysteine pairing not given here) [Av3bM103] | No | did not show any degradation product; also recorded: prevent degradation | 82 |  | 879 pmol/g | −64.1% | not thermo-stable | comparable knock-down effects to Av3b | 518 ± 390 (N = 2) pmol/g | degradation was not detected |  |  |  |  | 7
